In patent US20170204140A1, “ANTAGONISTIC PEPTIDES” (Deakin University, priority 2014, published 2017):
Ends that are not written are not given here.

Key:
[1] = tested on: CHO-APP cells; assay: Aβ secretion from CHO-APP cells, sandwich ELISA; type: cell-based, Chinese hamster; conditions: 5 hrs treatment; 1 nM to 1 μM
Description: Cells were treated for 5 hrs with compound concentrations ranging from 1 nM to 1 μM. Aβ secreted in the cell media was quantified using a sandwich ELISA. Data are calculated relative to Aβ secreted from control cells treated with DMSO (vehicle) alone.
Cells are seeded in 12-well plates and treated for 6-24 hrs with peptide or vehicle. After treatment, the cells are examined under a light microscope to evaluate toxicity. Culture media is collected, centrifuged and stored at −20° C. for Aβ ELISA and for sAPPβ analysis. Cells are harvested in PBS and cell pellets collected by centrifugation and frozen at −80° C. until use. Pellets are homogenized in RIPA buffer (0.1% SDS, 0.5% sodium deoxycholate, 1% Triton X-100, 150 mM NaCl in 50 mM Tris-HCl, pH 7.4) to assay for BACE1 enzymatic activity. The data is normalised to protein concentration determined by the BCA.
0.5 μg of mouse monoclonal antibody WO2 (Aβ1-16) is coated in 384-well plates. After blocking with hydrolysed casein and washing with PBS containing 0.05% Tween 20 (PBS-T), biotinylated IE8 antibody (Aβ18-22) (20 ng dilution in 10 μL blocking buffer) is added followed by culture media samples (50 μL/well). A standard curve of Aβ peptide (0.03-3 ng/well) is run in parallel. […] The plates are read in a Wallac Victor 2 Multicounter instrument and data calculated relative to the Aβ peptide standard curve.

[2] = target: BACE1 (Homo sapiens, UniProt P56817); assay: BACE1 inhibition assay based on cleavage of fluorogenic APP substrate; type: biochemical; conditions: peptide 100 nM and 200 nM; versus 0 nM control
Description: The peptide concentrations of 100 nM and 200 nM show a significant (*) difference to the upper limit when compared with the negative control. The mean fluorescent units are a representation of the cleaved product of APP by BACE1 (P<0.0 5).
A fluorescent BACE1 activity assay kit (Sigma-Aldrich, NSW, Australia), is used to not only show the cleavage of APP by BACE1, but also the inhibitors' ability to prevent cleavage of APP by BACE1. A measurement of fluorescence expresses the resulting cleaved APP product, which indirectly measures the activity of BACE1 in cleaving APP. Assays are conducted in triplicate with (1, 10, 100 and 1000 nM) or without the peptide inhibitors, as negative controls. Commercially available BACE1 inhibitors (STA-200 and Merck Compound IV) are used as references. Data derived from assays at various substrate concentrations are used to determine Ki values and the mode of inhibition (competitive/allosteric) using the Lineweaver-Burk method.

[3] = target: T1, endogenous BACE1 (Homo sapiens, UniProt P56817); assay: BACE1 enzyme activity assay on M17 human neuroblastoma cell lysate; type: biochemical; conditions: 200 nM peptide
T1 construct: endogenous in cells; host or cells: M17 human neuroblastoma cells (lysate)
Description: (§1) The M17 cell lysate was subjected to BACE1 enzyme activity assay and was read on a fluorometer in duplicate with one experimental group of a positive control, without the peptide inhibitor (0 nM), and an experimental group, with an added 200 nM concentration of the peptide inhibitor. […] The mean fluorescent units are a representation of the cleaved product of APP by BACE1 (P<0.0 5). This indicates the production of BACE1 in cultured human neuronal cells and the usefulness of this cell line.
as §1, with “5).” for “5). This indicates the production of BACE1 in cultured human neuronal cells and the usefulness of this cell line.”
The CelLytic extraction kit (Sigma-Aldrich) is used to prepare total protein extracts from M17 cells, with protein concentrations determined by BCA protein assay (Thermo Scientific Pierce, NH, USA), following the manufacturer's instructions.
Cell lysates obtained above are subjected to BACE1 enzyme assays, as described above.

[4] = target: T2, IL-13 binding to IL-4Rα (Homo sapiens, UniProt P24394); assay: Inhibition ELISA of IL-13 binding to IL-4Rα; conditions: pre-incubation of IL-4Rα with nM amounts of the peptide
T2 construct: purchased SBH Sciences (IL-4Rα); Sigma-Aldrich (IL-13)
T2 sequence (P24394 26-232 limits assumed): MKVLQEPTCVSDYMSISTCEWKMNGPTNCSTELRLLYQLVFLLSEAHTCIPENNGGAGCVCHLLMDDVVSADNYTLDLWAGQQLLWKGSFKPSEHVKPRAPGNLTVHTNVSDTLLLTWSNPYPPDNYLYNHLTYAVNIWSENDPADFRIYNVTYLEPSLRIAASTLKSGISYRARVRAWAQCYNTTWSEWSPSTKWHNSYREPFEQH
From the text: (§2) After extensive washing, HRP will be colorimetrically detected with the substrate o-phenylenediamine (Sigma-Aldrich) and read at 492 nm, according to our established protocols.

[5] = target: T3, IL-4 binding to IL-4Rα (Homo sapiens, UniProt P24394); assay: Inhibition ELISA of IL-4 binding to IL-4Rα; conditions: pre-incubation of IL-4Rα with nM amounts of the peptide
T3 construct: purchased SBH Sciences (IL-4Rα); Sigma-Aldrich (IL-4)
T3 sequence (P24394 26-232 limits assumed): T2 sequence (P24394 26-232 limits assumed)
From the text: as §2

[6] = tested on: JAK-STAT6 signaling in HEK-Blue cells; assay: JAK-STAT6 signaling in HEK-Blue cells (SEAP reporter, QUANTI-Blue); type: cell-based
Description: Positive Control (PC) included cells treated with IL-4 cytokine alone. Control 1 (C1) included cells incubated with peptide antagonist only and Control 2 (C2) included cells without any treatment. The results represent the mean of 3 replicates within an experiment and the error bars show standard deviation. P<0.05* denotes significance of optical density (OD) readings compared to positive control (PC).
The percentage values represented here are a reflection of treatments used in FIG. 9 (75 μM, 150 μM and 225 μM). […] Positive control is denoted at 0%, which is used as a referral point for the standard value at which inhibition begins.
Activation of this pathway leads to SEAP secretion in the supernatant and is easily detected using QUANTI-Blue medium that changes colour to purple/blue in the presence of SEAP, following manufacturer's instructions. Cells are grown and maintained in DMEM medium with 10% FCS at 37° C. in a 5% CO2-humidified chamber, following the manufacturer's instructions and established cell culture techniques. […]
In FIG. 9, six treatment wells were used in total; 4 wells treated with peptide N1 and 2 wells without peptide as positive and negative controls (shown in results section). […] The subsequent results were read using an xMark microplate absorbance spectrophotometer (Bio-Rad) at a wavelength of 640 nm

T1 sequence (P56817 46-501): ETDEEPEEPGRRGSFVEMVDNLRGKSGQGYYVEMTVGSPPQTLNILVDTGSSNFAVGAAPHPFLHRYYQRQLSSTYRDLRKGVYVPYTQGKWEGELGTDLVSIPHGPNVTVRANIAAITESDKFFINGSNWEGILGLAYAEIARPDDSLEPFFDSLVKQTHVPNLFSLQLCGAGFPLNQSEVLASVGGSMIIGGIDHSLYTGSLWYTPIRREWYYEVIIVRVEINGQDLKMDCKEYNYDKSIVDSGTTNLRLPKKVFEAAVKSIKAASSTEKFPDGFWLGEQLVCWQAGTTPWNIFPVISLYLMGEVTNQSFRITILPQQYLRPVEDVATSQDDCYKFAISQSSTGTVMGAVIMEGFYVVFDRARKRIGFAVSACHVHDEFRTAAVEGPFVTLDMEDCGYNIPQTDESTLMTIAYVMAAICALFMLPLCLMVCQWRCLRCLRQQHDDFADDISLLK
BACE1, sequence (P56817 46-501, species assumed): as the sequence (P56817 46-501) above

inhibition of BACE1 activity [2]	inhibition of endogenous BACE1 activity [3]	reduction of IL-13 binding to IL-4Rα [4]	reduction of IL-4 binding to IL-4Rα [5]	Compound	Aβ secreted in the cell media relative to DMSO control [1]	inhibition of JAK-STAT6 signaling ([6]; 225 μM peptide, IL-4 stimulated HEK-Blue cells, dose-dependent (75, 150, 225 μM))	JAK-STAT6 signaling triggered by peptide alone ([6]; peptide without IL-4)
				C[C@@H](NC(=O)c1cc(C(=O)N[C@@H](Cc2ccccc2)[C@H](O)CNC2CC2)cc(N(C)S(C)(=O)=O)c1)c1ccccc1 [Compound IV]	inhibits Aβ secretion in a dose dependent manner		
more than 40%	more than 50%	50%	25%	FHESWPTFLSPS [peptide antagonist]		up to 59%	did not trigger a non-specific JAK-STAT6 signaling
